Assay results taken from US20120014941A1 (Hoffmann-La Roche, published 2012).
Where two headings read alike, the source gives them in different places.

Tests used:
[1] = molecular target: Cynomologus Monkey Bv8 (Genentech; PUR21590) (cynomolgus monkey); assay: SPR (BIAcore 3000, 25 C): cynomolgus monkey Bv8 coupled to CM5 chip, IgG injected; 1:1 Langmuir fit
[2] = molecular target: T1, recombinant human Bv8 (PeproTech) (human, UniProt Q9HC23-2 28-108, biotinylated (Sulfo-NHS-LC-biotin) in the two competition ELISAs with coated antibody); assay: SPR (BIAcore 3000, 25 C): human Bv8 coupled to CM5 chip, IgG injected; 1:1 Langmuir fit
T1 construct: Bought protein; also called HuBv8; prokineticin-2
T1 sequence (looked up): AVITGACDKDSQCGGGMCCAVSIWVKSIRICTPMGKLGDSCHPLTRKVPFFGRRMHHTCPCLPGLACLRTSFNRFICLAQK
Source text: (§1) For binding affinity determinations of anti-Bv8 antibodies (Fab or IgG), Surface Plasmon Resonance (SRP) measurement with a BIAcore™-3000 instrument was used. Briefly, CM5 biosensor chip was activated with EDC and NHS reagents according to the supplier's instructions, and human Bv8 (PeproTech) or Cynomologus Monkey (Genentech; PUR21590) was coupled to achieve approximately 150 response units (RU), then following by blocking un-reacted groups with 1M ethanolamine. For kinetics measurements, two-fold serial dilutions of anti-Bv8 Fabs (0.19 nM to 25 nM) or IgGs (0.019 nM to 10 nM) were injected in HBS-P buffer (0.01M HEPES pH 7.4, 0.15M NaCl, 0.005% surfactant P20) at 25° C. with a flow rate of 30 μl/min. Association rates (kₒₙ) and dissociation rates (koff) were calculated using a simple one-to-one Langmuir binding model (BIAcore Evaluation Software version 3.2). The equilibrium dissociation constant (Kd) was calculated as the ratio koff/kₒₙ.

[3] = molecular target: T1, recombinant human Bv8 (PeproTech); assay: competitive ELISA: antibody in serial dilution mixed with biotinylated human Bv8 (57 pM) and put on plate coated with mouse 2G9 IgG1 (m5, the competitor); streptavidin-HRP, OD 450/620; four-parameter fit
Procedure: Maxisorp 384 well plates were coated with 1 μg/ml parent mouse 2G9 IgG1 antibody at 25 μl/well in 50 mM sodium carbonate buffer, pH 9.6, at 4° C. overnight. Plates were washed with phosphate buffered saline (PBS) containing 0.05% polysorbate, pH 7.4 and blocked with PBS containing 0.5% BSA, 10 ppm Proclin, pH 7.4, at 80 μL1/well. After one-hour incubation at room temperature, plates were washed. A mixture of serially diluted humanized 2G9 antibodies (0.11 pM-180 nM) in PBS containing 0.5% BSA, 0.05% polysorbate 20, pH 7.4 and biotinylated human Bv8 (final concentration 0.5 ng/ml or 57 pM) were added at 25 μL1/well. After two hour incubation, plates were washed and horseradish peroxidase conjugated streptavidin (GE Healthcare) was added. After a final 30 minute incubation, plates were washed and the substrate 3,3′,5,5′-tetramethyl benzidine (Kirkegaard & Perry Laboratories) was added. The reaction was stopped by adding 1 M phosphoric acid and absorbance was read at 450 nm on a Multiskan Ascent reader (Thermo Scientific, Hudson, N.H.). For data analysis, the titration curves were fitted using a four-parameter nonlinear regression curve-fitting program and the IC₅₀ concentrations were determined (KaleidaGraph, Synergy Software, Reading, Pa.).

[4] = molecular target: T1, recombinant human Bv8 (PeproTech); assay: SPR (BIAcore 3000, 25 C): human Bv8 coupled to CM5 chip, Fab injected; 1:1 Langmuir fit; N=3
Source text: as §1

[5] = molecular target: T1, recombinant human Bv8 (PeproTech); assay: phage competition ELISA: Fab-displaying phage preincubated with serially diluted soluble human Bv8 (the concentration on the axis), unbound phage captured on plate-coated human Bv8, anti-M13-HRP; bound phage in %
Procedure: (§2) MAXISORP™ microtiter plates were coated with recombinant human Bv8 (PeproTech) at 2 μg/ml in PBS overnight and then blocked with PBST buffer (0.5% BSA and 0.05% Tween 20 in PBS) for an hour at room temperature (RT). Phage from culture supernatants were incubated with serially diluted human Bv8 in PBST buffer in a tissue-culture microtiter plate for an hour at RT, after which 80 μl of the mixture was transferred to the target-coated wells for 15 minutes to capture unbound phage. The plate was washed with PBT buffer (0.05% Tween 20 in PBS), and HRP-conjugated anti-M13 (Amersham Pharmacia Biotech) was added (1:5000 in PBST buffer) for 40 minutes. The plate was washed with PBT buffer and developed by adding tetramethylbenzidine substrate (Kirkegaard and Perry Laboratories, Gaithersburg, Md.). The absorbance at 450 nm was plotted as a function of target concentration in solution to determine phage IC₅₀.

[6] = molecular target: T1, recombinant human Bv8 (PeproTech); assay: as above; remark: listed apart in the source
Procedure: as §2

[7] = molecular target: Cynomologus Monkey Bv8 (Genentech; PUR21590) (cynomolgus monkey); assay: SPR (BIAcore 3000, 25 C): cynomolgus monkey Bv8 coupled to CM5 chip, Fab injected; 1:1 Langmuir fit
[8] = molecular target: T1, recombinant human Bv8 (PeproTech); assay: SPR (BIAcore 3000, 25 C): human Bv8 coupled to CM5 chip, Fab injected; 1:1 Langmuir fit
Source text: as §1

[9] = molecular target: Cynomologus Monkey Bv8 (Genentech; PUR21590) (cynomolgus monkey); assay: SPR, BIAcore-3000, Bv8 coupled to CM5 chip, IgG (FIG. 21)
[10] = molecular target: T1, recombinant human Bv8 (PeproTech); assay: as above
Source text: as §1

[11] = molecular target: T1, recombinant human Bv8 (PeproTech); assay: SPR (BIAcore 3000, 25 C): human Bv8 coupled to CM5 chip, IgG injected; 1:1 Langmuir fit; remark: listed apart in the source
Source text: as §1

[12] = molecular target: Cynomologus Monkey Bv8 (Genentech; PUR21590) (cynomolgus monkey); assay: SPR (BIAcore 3000, 25 C): cynomolgus monkey Bv8 coupled to CM5 chip, IgG injected; 1:1 Langmuir fit; off-rate followed for 30 min
[13] = molecular target: T1, recombinant human Bv8 (PeproTech); assay: SPR (BIAcore 3000, 25 C): human Bv8 coupled to CM5 chip, IgG injected; 1:1 Langmuir fit; off-rate followed for 30 min
Source text: as §1

[14] = molecular target: T1, recombinant human Bv8 (PeproTech); assay: as above; remark: listed apart in the source
Source text: as §1

B1: h2G9.K4G1.Polish IgG (antibody, V domains shown)
VH: EVQLVQSGAEVKKPGASVKVSCKASGYSFTDYDMHWVRQAPGQGLEWIGYISSYSGATTYNQKFKGRVTITVDKSTSTAYLELSSLRSEDTAVYYCARDSNYGEAYAMDYWGQGTLVTVSS
VL: DIVMTQSPDSLAVSLGERATINCKASQSVDYSGDSYMNWYQQKPGQPPKLLIYAASNLESGVPDRFSGSGSGTDFTLTISSLQAEDVAVYYCQQINEDPFTFGQGTKVEIK
notes: IgG; constant regions not described for the humanized antibodies; also called parental polished K4G1 molecule
Q: What does the source list for B1?
A: Kd [1]: 30 pM; koff [1]: 1.5e-05 s⁻¹; kon [1]: 454000 M⁻¹ s⁻¹; Kd [2]: 20 pM; koff [2]: 1.2e-05 s⁻¹; kon [2]: 528000 M⁻¹ s⁻¹; IC50 [3]: 84 pM

B2: h2G9.K4G1.Polish Fab (Fab, V domains shown)
VH: EVQLVQSGAEVKKPGASVKVSCKASGYSFTDYDMHWVRQAPGQGLEWIGYISSYSGATTYNQKFKGRVTITVDKSTSTAYLELSSLRSEDTAVYYCARDSNYGEAYAMDYWGQGTLVTVSS
VL: DIVMTQSPDSLAVSLGERATINCKASQSVDYSGDSYMNWYQQKPGQPPKLLIYAASNLESGVPDRFSGSGSGTDFTLTISSLQAEDVAVYYCQQINEDPFTFGQGTKVEIK
notes: also called polished K4G1
Q: B2 was tested. Which Kd [4] did it give?
A: 1440 pM

Q: What about the koff [4] of the same binder?
A: 0.000689 s⁻¹

Q: And the kon [4]?
A: 475000 M⁻¹ s⁻¹

Q: And the “IC50 (read off the curve)” value [5]?
A: ~200 pM

Q: And the “IC50 (read off the curve)” value [6]?
A: ~200 pM

B3: h2G9.K4G1 (antibody, V domains shown)
VH: EVQLVQSGAEVKKPGASVKVSCKASGYSFTDYDMHWVRQAPGQGLEWIGYISCYNGATTYNQKFKGRVTITVDKSTSTAYLELSSLRSEDTAVYYCARDGNYGEAYAMDYWGQGTLVTVSS
VL: DIVMTQSPDSLAVSLGERATINCKASQSVDYDGDSYMNWYQQKPGQPPKLLIYAASNLESGVPDRFSGSGSGTDFTLTISSLQAEDVAVYYCQQINEDPFTFGQGTKVEIK
notes: also called h2G9.K4G1 anti-Bv8 antibody
Q: B3 was tested. Which IC50 [3] did it give?
A: 984 pM

B4: h2G9.K4G1.v55 Fab (Fab, V domains shown)
VH: EVQLVQSGAEVKKPGASVKVSCKASGYSFTDYDMHWVRQAPGQGLEWIGYISSYSGATTYNQKFKGRVTITVDKSTSTAYLELSSLRSEDTAVYYCARDSNYGEAYAMDYWGQGTLVTVSS
VL: DIVMTQSPDSLAVSLGERATINCKASQSLDYYHYSYMNWYQQKPGQPPKLLIYAASNRESGVPDRFSGSGSGTDFTLTISSLQAEDVAVYYCQQINEDPFTFGQGTKVEIKR
notes: Variable domains only; claims 8 and 9)
Q: With B4 as the binder, how does the Kd [7] read?
A: 420 pM

Q: And the koff [7]?
A: 0.000129 s⁻¹

Q: And the kon [7]?
A: 310000 M⁻¹ s⁻¹

Q: And the Kd [8]?
A: 180 pM

Q: What about the koff [8] of the same binder?
A: 7.2e-05 s⁻¹

Q: What about the kon [8] of the same binder?
A: 396000 M⁻¹ s⁻¹

Q: And the Kd [4]?
A: 280 pM

Q: What about the koff [4] of the same binder?
A: 0.000136 s⁻¹

Q: And the kon [4]?
A: 484000 M⁻¹ s⁻¹

Q: And the “IC50 (read off the curve)” value [6]?
A: ~60 pM

B5: h2G9.K4G1.v19 IgG (antibody, V domains shown)
VH: EVQLVQSGAEVKKPGASVKVSCKASGYSLTNYDMHWVRQAPGQGLEWIGYIHSYSGSTLYNQKFKGRVTITVDKSTSTAYLELSSLRSEDTAVYYCARDSNYGEAYAMDYWGQGTLVTVSS
VL: DIVMTQSPDSLAVSLGERATINCKASQSVDYSGDSYMNWYQQKPGQPPKLLIYAASNLESGVPDRFSGSGSGTDFTLTISSLQAEDVAVYYCQQINEDPFTFGQGTKVEIKR
notes: Variable domains only; IgG, constant regions not described; claims 6 and 7); also called humanized 2G9 variant 19
Q: Which fold tighter binding than chimeric 2G9 [9] does the source give for B5 here?
A: > 2 fold

Q: And the “fold tighter binding than chimeric 2G9” value [10]?
A: ≥ 2 fold

Q: What about the kon [1] of the same binder?
A: 501000 M⁻¹ s⁻¹

Q: What about the kon [11] of the same binder?
A: 760000 M⁻¹ s⁻¹

Q: And the kon [2]?
A: 760000 M⁻¹ s⁻¹

Q: And the Kd [12]?
A: < 9 pM

Q: And the koff [12]?
A: < 5e-06 s⁻¹

Q: And the Kd [13]?
A: ≤ 7 pM

Q: And the koff [13]?
A: ≤ 5e-06 s⁻¹

Q: What about the Kd [14] of the same binder?
A: ≤ 7 pM

Q: What about the koff [14] of the same binder?
A: ≤ 5e-06 s⁻¹

Q: What about the IC50 [3] of the same binder?
A: 14 pM

B6: h2G9.K4G1.v19 Fab (Fab, V domains shown)
VH: EVQLVQSGAEVKKPGASVKVSCKASGYSLTNYDMHWVRQAPGQGLEWIGYIHSYSGSTLYNQKFKGRVTITVDKSTSTAYLELSSLRSEDTAVYYCARDSNYGEAYAMDYWGQGTLVTVSS
VL: DIVMTQSPDSLAVSLGERATINCKASQSVDYSGDSYMNWYQQKPGQPPKLLIYAASNLESGVPDRFSGSGSGTDFTLTISSLQAEDVAVYYCQQINEDPFTFGQGTKVEIKR
notes: Variable domains only; claims 6 and 7)
Q: With B6 as the binder, how does the Kd [7] read?
A: 100 pM

Q: What about the koff [7] of the same binder?
A: 2.8e-05 s⁻¹

Q: What about the kon [7] of the same binder?
A: 267000 M⁻¹ s⁻¹

Q: And the Kd [8]?
A: 40 pM

Q: And the koff [8]?
A: 1.6e-05 s⁻¹

Q: And the kon [8]?
A: 359000 M⁻¹ s⁻¹

Q: And the Kd [4]?
A: 80 pM

Q: What about the koff [4] of the same binder?
A: 3.8e-05 s⁻¹

Q: And the kon [4]?
A: 471000 M⁻¹ s⁻¹

Q: What about the “IC50 (read off the curve)” value [5] of the same binder?
A: ~90 pM

B7: h2G9.K4G1 variant CDR-L1 G29S (Fab, V domains shown)
VH: EVQLVQSGAEVKKPGASVKVSCKASGYSFTDYDMHWVRQAPGQGLEWIGYISCYNGATTYNQKFKGRVTITVDKSTSTAYLELSSLRSEDTAVYYCARDGNYGEAYAMDYWGQGTLVTVSS
VL: DIVMTQSPDSLAVSLGERATINCKASQSVDYDSDSYMNWYQQKPGQPPKLLIYAASNLESGVPDRFSGSGSGTDFTLTISSLQAEDVAVYYCQQINEDPFTFGQGTKVEIK
Q: How did the “IC50 (read off the curve)” value [6] turn out when B7 was run?
A: ~1000 pM
